# Measured values taken from patent US20050244400A1.
# Key:
# [1] = target: GAAΔ791-952-GILTΔ1-7 (GAA truncated with the GILT tag fused at position 791) (human) (UniProt P10253); experiment: cell-based or functional assay
# [2] = target: GAA Δ 817-952 (human GAA lacking C-terminal residues 817-952) (human) (UniProt P10253); experiment: cell-based or functional assay
GAA activity (nmol/hr-ml) in media of co-transfected HEK293 cells [1] [nmol/h/mL],GAA activity (nmol/hr-ml) in media of co-transfected HEK293 cells [2] [nmol/h/mL],Substance
1,,SS-GAA-817-952 (from UniProt P10253 817-952) (enzyme)
2,14,"SS-GAA-791-952 (human IGF-II signal sequence fused to human GAA residues 791-952, the C-terminal domain) (from UniProt P10253 791-952) (enzyme)"
